Reference: publication PMC7828395, “Mapping the DNA-Binding Motif of Scabin Toxin, a Guanine Modifying Enzyme from Streptomyces scabies” (Toxins, 2021)

Test system: Nc1nc2c(ncn2[C@@H]2O[C@H](COP(=O)(O)O)[C@@H](O)[C@H]2O)c(=O)[nH]1
Experiment: purified protein
Settings: pH 7.9

(Streptomyces scabiei 87.22)
K0.5: 289 ± 18 µM
kcat: >3 s⁻¹
